Key:
[1] = test system: bsSecA783 F652-GS(5)-KRRLamBss Cys29-IAEDANS; assay: Signal peptide competition-binding assay by FRET; design: species or system B. subtilis; conditions: 5-fold molar excess of unlabeled SP22; data not shown
[2] = test system: bsSecA783 F652-GS(10)-PhoAss Cys22-IAEDANS; assay: Signal peptide competition-binding assay by FRET; design: species or system B. subtilis; conditions: 5-fold molar excess of unlabeled SP22; data not shown
[3] = target: E. coli alkaline phosphatase signal peptide SP22, IANBD-labeled (E. coli); assay: fluorescence polarisation
[4] = test system: IANBD-labeled SP22; assay: SecA-signal peptide binding affinity by fluorescence anisotropy; design: species or system E. coli

Molecule	Kd [3]	further results
MKQSTIALALLPLLFTPVTKAC-NH2 [SP22]	–	reduction of energy transfer efficiency [1]: approximately 50%; reduction of energy transfer efficiency [2]: approximately 50%
bsSecA783-KRRLamBss (from UniProt P28366 1-783)	13 µM	–
bsSecA783-PhoAss (from UniProt P28366 1-783)	4.5 µM	–
bsSecA841 (from UniProt P28366 1-841) (enzyme)	1.9 µM	–
bsSecA841-KRRLamBss (from UniProt P28366 1-841)	14 µM	–
bsSecA841-PhoAss (from UniProt P28366 1-841)	4.6 µM	–
bsSecA783: carboxy-terminally truncated B. subtilis SecA lacking the CTL domain (protein, UniProt P28366 1-783, looked up, fragment) MLGILNKMFDPTKRTLNRYEKIANDIDAIRGDYENLSDDALKHKTIEFKERLEKGATTDDLLVEAFAVVREASRRVTGMFPFKVQLMGGVALHDGNIAEMKTGEGKTLTSTLPVYLNALTGKGVHVVTVNEYLASRDAEQMGKIFEFLGLTVGLNLNSMSKDEKREAYAADITYSTNNELGFDYLRDNMVLYKEQMVQRPLHFAVIDEVDSILIDEARTPLIISGQAAKSTKLYVQANAFVRTLKAEKDYTYDIKTKAVQLTEEGMTKAEKAFGIDNLFDVKHVALNHHINQALKAHVAMQKDVDYVVEDGQVVIVDSFTGRLMKGRRYSEGLHQAIEAKEGLEIQNESMTLATITFQNYFRMYEKLAGMTGTAKTEEEEFRNIYNMQVVTIPTNRPVVRDDRPDLIYRTMEGKFKAVAEDVAQRYMTGQPVLVGTVAVETSELISKLLKNKGIPHQVLNAKNHEREAQIIEEAGQKGAVTIATNMAGRGTDIKLGEGVKELGGLAVVGTERHESRRIDNQLRGRSGRQGDPGITQFYLSMEDELMRRFGAERTMAMLDRFGMDDSTPIQSKMVSRAVESSQKRVEGNNFDSRKQLLQYDDVLRQQREVIYKQRFEVIDSENLREIVENMIKSSLERAIAAYTPREELPEEWKLDGLVDLINTTYLDEGALEKSDIFGKEPDEMLELIMDRIITKYNEKEEQFGKEQMREFEKVIVLRAVDSKWMDHIDAMDQLRQGIHLRAYAQTNPLREYQMEGFAMFEHMIESIEDEVAKFVMKAEIENN	–	higher affinity for SP22 compared to full-length bsSecA841 [4]: approximately 4 fold

Reference: paper PMC4883009 (Biochemistry, 2016)
